The text below walks through data of patent US20200247902A1.

For the test, the target named is bovine submaxillary mucin (BSM) (bovine). Briefly: ELISA on BSM-coated wells, 0-100 nM antibody; periodate-treated signal subtracted (periodate-sensitive STn binding curve). In general terms: ELISA stands for enzyme-linked immunosorbent assay.

One may read the EC50 as the midpoint of the concentration-response curve.

B1: SIA01 (antibody, V domains shown)
VH: EVQLVQSGAEVKKPGASVKVSCKASGYTFTDHAIHWVRQAPGQGLEWMGYFSPGNDDIKYNEKFRGRVTMTADKSSSTAYMELRSLRSDDTAVYFCKRSLSTPYWGQGTLVTVSS
VL: DIVMTQSPDSLAVSLGERATINCKSSQSLLNRGNHKNYLTWYQQKPGQPPKLLIYWASTRESGVPDRFSGSGSGTDFTLTISSLQAEDVAVYYCQNDYTYPYTFGQGTKVEIK
In turn, B1 gave a 50% effective concentration (EC50) of 4.2 nM.
